Assay results: patent publication US20090031441A1 (NATIONAL UNIVERSITY CORPORATION NAGOYA UNIVERSITY, published 2009)

T1: GAI (Arabidopsis DELLA protein), yeast two-hybrid prey in pGADT7 AD vector (Arabidopsis, UniProt Q9LQT8 1-533)
T1 construct: also called AtDELLA
T1 sequence (looked up): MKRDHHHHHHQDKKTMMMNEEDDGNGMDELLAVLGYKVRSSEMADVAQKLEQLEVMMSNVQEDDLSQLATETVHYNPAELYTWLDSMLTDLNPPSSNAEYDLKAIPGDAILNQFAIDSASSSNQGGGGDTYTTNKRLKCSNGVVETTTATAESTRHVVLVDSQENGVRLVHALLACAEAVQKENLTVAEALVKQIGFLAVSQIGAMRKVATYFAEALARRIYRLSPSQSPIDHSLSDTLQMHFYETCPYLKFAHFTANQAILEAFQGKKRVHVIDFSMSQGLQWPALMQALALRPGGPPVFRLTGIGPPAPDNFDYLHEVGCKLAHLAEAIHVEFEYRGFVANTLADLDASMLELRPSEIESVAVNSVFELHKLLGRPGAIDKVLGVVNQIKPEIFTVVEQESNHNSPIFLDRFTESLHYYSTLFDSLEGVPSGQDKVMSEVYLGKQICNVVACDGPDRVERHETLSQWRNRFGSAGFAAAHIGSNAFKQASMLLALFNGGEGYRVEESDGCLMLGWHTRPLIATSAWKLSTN

T2: RGL2 (Arabidopsis DELLA protein), yeast two-hybrid prey in pGADT7 AD vector (Arabidopsis, UniProt Q8GXW1 1-547)
T2 construct: also called AtDELLA
T2 sequence (looked up): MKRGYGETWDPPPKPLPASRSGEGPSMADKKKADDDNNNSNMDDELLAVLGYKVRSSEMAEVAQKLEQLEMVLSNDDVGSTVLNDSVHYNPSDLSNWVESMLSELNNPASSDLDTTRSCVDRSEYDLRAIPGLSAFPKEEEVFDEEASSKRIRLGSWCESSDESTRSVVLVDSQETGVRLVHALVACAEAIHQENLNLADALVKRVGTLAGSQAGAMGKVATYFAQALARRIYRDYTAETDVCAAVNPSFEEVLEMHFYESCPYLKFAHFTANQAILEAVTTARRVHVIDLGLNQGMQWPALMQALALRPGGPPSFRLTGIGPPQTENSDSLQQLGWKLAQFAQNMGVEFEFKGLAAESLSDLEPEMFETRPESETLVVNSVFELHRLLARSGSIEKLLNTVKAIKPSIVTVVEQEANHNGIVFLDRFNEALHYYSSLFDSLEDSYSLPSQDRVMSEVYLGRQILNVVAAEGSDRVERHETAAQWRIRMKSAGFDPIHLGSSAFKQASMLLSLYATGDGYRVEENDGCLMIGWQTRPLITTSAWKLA


How the values were obtained:
[1] = molecular target: T1, GAI (Arabidopsis DELLA protein), yeast …; test: yeast two-hybrid, AtGID1 bait and AtDELLA prey, 10^-5 M GA4 in medium; colony growth (Assay A) and beta-galactosidase activity (Assay B)
Protocol: Panel A) depicts AtGID1-AtDELLA interaction in the presence of GA in two types of yeast hybrid (Y2H) assays. Each AtGID1 was used as a bait while AtDELLA was a prey. GA₄ (10⁻⁵ M) was added to the medium. The bars indicates β-galactosidase activity when o-nitrophenol-β-D-galactopyranoside was used as a substrate (Assay B). The growth of each transformant in the defined medium for 2 days (Assay A) is shown beneath of each bar graph. The experiment was carried out in quadruplicate. The SD value shown in the figure was determined from three measurements. Panel B) depicts the dose response in AtGID1-RGA interaction in Assay B of Y2H. GA₄ (10⁻⁵ to 10⁻⁹ M) was added to the medium. The experiment was conducted in duplicates. The SD value shown in the figure was determined from three measurements. Panel C) depicts the results of an evaluation of the in vitro GA-binding potency of AtGID1 using AtDELLA. Left panel, 15 minutes after mixing AtGID1c (C), tritiated GA, with an excess amount of non-labeled GA (+) or without non-labeled GA (−). GAI (G) or RGA (R) was added, and then the GA-binding activity in each reaction mixture was measured according to the standard method. Recombinant protein originating from the vector (v) was used as a negative control. The experiment was carried out in duplicates. The SD value was determined from three measurements. Right panel, a profile of Western blotting for recombinant AtDELLA using an antibody to His tag. G, GAI; R, RGA; v, vector; M, molecular weight marker.
Arabidopsis has five DELLA proteins (RGA, GAI, RGL1, RGL2, and RGL3; collectively designated AtDELLA; Fleet, C. M., and Sun, T.-P. (2005) Curr. Opin. Plant Biol., 8, 77-85; Dill, A., and Sun, T. (2001) Genetics, 159, 777-785); therefore, there are 15 possible combinations of GID1/DELLA proteins. To verify the positive interactions between AtGID1-AtDELLA, two experiments were conducted using the yeast two hybrid (Y2H) system. […] In the second experiment (Assay B), β-galactosidase activity was measured, as reporter gene product of AtGID1-AtDELLA interactions. […]

[2] = molecular target: T2, RGL2 (Arabidopsis DELLA protein), yeast …; test: yeast two-hybrid system
Protocol: Arabidopsis has five DELLA proteins (RGA, GAI, RGL1, RGL2, and RGL3; collectively designated AtDELLA; Fleet, C. M., and Sun, T.-P. (2005) Curr. Opin. Plant Biol., 8, 77-85; Dill, A., and Sun, T. (2001) Genetics, 159, 777-785); therefore, there are 15 possible combinations of GID1/DELLA proteins. To verify the positive interactions between AtGID1-AtDELLA, two experiments were conducted using the yeast two hybrid (Y2H) system. In the first experiment (Assay A), a viable colony assay using a defined medium in which only positive clones would survive was carried out. In the second experiment (Assay B), β-galactosidase activity was measured, as reporter gene product of AtGID1-AtDELLA interactions.
BD Matchmaker Two-hybrid System 3 (Clontech, Palo Alto, Calif., USA; now part of Takara Bio) was used in the Y2H experiments. After confirming the PCR products of the AtGID1 genes by sequencing, PCR products were cloned into pGBKT7 DNA-BD shuttle vector to construct bait plasmids. Likewise, the entire coding region of each AtDELLA gene (GAI including EcoRI and XhoI sites; RGA including BamHI and XhoI sites; RGL1 including SmaI and SacI sites; RGL2 including SmaI and ClaI sites; RGL3 including SmaI and XhoI sites on the ends) was cloned into pGADT7 AD vector. The S. cerevisiae AH109 (MATa) strain or Y187 (MATα) strain was used, and DNA-BD and AD vector cassettes were used as negative controls. The details of the method used for the yeast assay are as described in the manufacturer's instructions (Yeast Protocols Handbook #PT3024-1; http://www.clontech.com/). Experiments were carried out four times independently. Similar results were obtained each time.

Binder	binding result [1]	binding result [2]
AtGID1a (At3g05120), yeast two-hybrid bait in pGBKT7 DNA-BD vector (receptor, not shown: small tags and cut ends, Bait fusion for the Y2H assays (BD Matchmaker Two-hybrid System 3); also called Arabidopsis GID1) MAASDEVNLIESRTVVPLNTWVLISNFKVAYNILRRPDGTFNRHLAEYLDRKVTANANPVDGVFSFDVLIDRRINLLSRVYRPAYADQEQPPSILDLEKPVDGDIVPVILFFHGGSFAHSSANSAIYDTLCRRLVGLCKCVVVSVNYRRAPENPYPCAYDDGWIALNWVNSRSWLKSKKDSKVHIFLAGDSSGGNIAHNVALRAGESGIDVLGNILLNPMFGGNERTESEKSLDGKYFVTVRDRDWYWKAFLPEGEDREHPACNPFSPRGKSLEGVSFPKSLVVVAGLDLIRDWQLAYAEGLKKAGQEVKLMHLEKATVGFYLLPNNNHFHNVMDEISAFVNAEC	binds	binds
AtGID1b (At3g63010), yeast two-hybrid bait in pGBKT7 DNA-BD vector (receptor, not shown: small tags and cut ends, Bait fusion for the Y2H assays; also called Arabidopsis GID1) MAGGNEVNLNECKRIVPLNTWVLISNFKLAYKVLRRPDGSFNRDLAEFLDRKVPANSFPLDGVFSFDHVDSTTNLLTRIYQPASLLHQTRHGTLELTKPLSTTEIVPVLIFFHGGSFTHSSANSAIYDTFCRRLVTICGVVVVSVDYRRSPEHRYPCAYDDGWNALNWVKSRVWLQSGKDSNVYVYLAGDSSGGNIAHNVAVRATNEGVKVLGNILLHPMFGGQERTQSEKTLDGKYFVTIQDRDWYWRAYLPEGEDRDHPACNPFGPRGQSLKGVNFPKSLVVVAGLDLVQDWQLAYVDGLKKTGLEVNLLYLKQATIGFYFLPNNDHFHCLMEELNKFVHSIEDSQSKSSPVLLTP		binds
